Assays:
Taq DNA polymerase [1] = target: T1, Taq DNA polymerase (UniProt P19821 P19821:1-832); assay: inhibition; hairpin extension assay; settings: tags: rTaq, 94 kDa, Roche Molecular Systems / Perkin Elmer; stem-loop dimer
Protocol: (§1) In a typical inhibition assay, a 20 μL reaction contained either 0.25 pmoles of Taq polymerase (5 U) or 0.125 pmoles of Tth polymerase (2.5 U), oligonucleotide inhibitor (at varying concentrations), 10 mM Tris-HCl (pH 8.3), 50 mM KCl, 2.5 mM MgCl_2, and 1 mM each dNTPs. Gel purified, 5'-end-labeled hairpin DNA substrate (DNA-HP; 5'-[…]-3') was then added to a final concentration of 250 nM and the reaction was incubated at 30° C. for 1 hour. The reaction was stopped by adding 5 μL of 0.5 M EDTA (pH 8.0) followed by formamide gel loading buffer. Extension products were resolved on 10% polyacrylamide gels under denaturing conditions. The amount of extension products were quantitated by phosphorimager. The amounts of products formed in the presence of inhibitor was normalized to the product formed in the absence of an inhibitor to obtain the percent of product.

Taq DNA polymerase [2] = target: T1, Taq DNA polymerase; assay: filter; settings: tags: rTaq, 94 kDa, Roche Molecular Systems / Perkin Elmer; stem-loop dimer
Protocol: For isolation of DNA molecules that bind tightly to Taq polymerase and Tth polymerase, respectively, the nitrocellulose filter partitioning method was used as described in the SELEX Patent Applications. Briefly, gel-purified ^32P ss-DNA pools labeled at the 5' end were suspended in the binding buffer, heated to 80° C., chilled on ice and then brought to room temperature. The DNA (5–10 pM) was then incubated for 15 minutes at room temperature with varying amounts of the target polymerase in 50 µL of the appropriate binding buffer containing 0.1 µg of tRNA and 0.01% hSA. The DNA concentrations were kept lower than 100 pM to ensure equilibrium in the presence of excess protein concentrations. After 15 minutes the binding reaction mixtures were passed through pre-wet nitrocellulose/cellulose acetate mixed matrix filters (0.45 µm pore size, Millipore Corporation, Bedford, Mass.) and the filters were immediately washed with 5 mL of binding buffer. The amount of DNA bound to the filters was quantitated by measuring the radioactivity of the filters by liquid scintillation counting. The quantity of DNA bound to filters in the absence of protein was used for background correction. The percentage of input DNA retained on each filter was plotted against the corresponding log of the polymerase concentration (FIGS. 1 and 2). […]

Taq DNA polymerase [3] = target: T1, Taq DNA polymerase; assay: inhibition; room temperature 16 h, 12.5 nM Taq; 22 nM at 30 C 1 h; IT50 41 C; settings: tags: rTaq, 94 kDa, Roche Molecular Systems / Perkin Elmer
Protocol: (§2) Since the concentration of Taq polymerase used in the assay is 12.5 nM, enzyme inhibition by TQ30 (SEQ ID NO:50) is likely to be a result of stoichiometric binding.
as §1

Tth DNA polymerase [4] = target: T2, Tth DNA polymerase (UniProt P52028 P52028:1-834); assay: inhibition; room temperature; IT50 29 C; settings: tags: rTth, 94 kDa, Roche Molecular Systems / Perkin Elmer
Protocol: as §2, §1

Taq DNA polymerase [5] = target: T1, Taq DNA polymerase; assay: inhibition; room temperature 16 h, 12.5 nM Taq; 67 nM at 30 C 1 h; IT50 37 C; settings: tags: rTaq, 94 kDa, Roche Molecular Systems / Perkin Elmer
Protocol: as §2, §1

Taq DNA polymerase [6] = target: T1, Taq DNA polymerase; assay: inhibition; hairpin extension assay; IT50 34 C; settings: tags: rTaq, 94 kDa, Roche Molecular Systems / Perkin Elmer
Protocol: (§3) Deletion analysis of the full-length TQ21 sequence led to the identification of a 51-mer sequence (Trnc.21 (SEQ ID NO:70) (Table 4)) that retained the ability to inhibit both Taq and Tth polymerases. In addition to the entire 30-nucleotide random region, the Trnc.21 sequence contained 9 and 12 nucleotides from the 5' and 3' fixed regions, respectively (Table 4). […] The calculated $IT50$ values for Taq polymerase and Tth polymerase are 34° C. and 35.6° C., respectively (FIG. 13C). The hairpin extension assays were carried out between the temperatures of 35 and 50° C. for 1 hour with […] Trnc.21. Thus, based on the affinity and the values of $IC50$ and $IT50$, the truncated form of TQ21 is a better inhibitor than the full-length sequence.
as §1, with “conditions.” for “conditions. The amount of extension products were quantitated by phosphorimager. The amounts of products formed in the presence of inhibitor was normalized to the product formed in the absence of an inhibitor to obtain the percent of product.”

Tth DNA polymerase [7] = target: T2, Tth DNA polymerase; assay: inhibition; hairpin extension assay; IT50 35.6 C; settings: tags: rTth, 94 kDa, Roche Molecular Systems / Perkin Elmer
Protocol: as §3
as §1, with “conditions.” for “conditions. The amount of extension products were quantitated by phosphorimager. The amounts of products formed in the presence of inhibitor was normalized to the product formed in the absence of an inhibitor to obtain the percent of product.”

Taq DNA polymerase [8] = target: T1, Taq DNA polymerase; assay: inhibition; hairpin extension assay, monomer; settings: tags: rTaq, 94 kDa, Roche Molecular Systems / Perkin Elmer; stem-loop
Protocol: as §1

Tth DNA polymerase [9] = target: T2, Tth DNA polymerase; assay: inhibition; hairpin extension assay; IT50 34.5 C; settings: tags: rTth, 94 kDa, Roche Molecular Systems / Perkin Elmer
Protocol: as §1

Taq DNA polymerase [10] = target: T1, Taq DNA polymerase; assay: inhibition; hairpin extension assay; IT50 41 C; settings: tags: rTaq, 94 kDa, Roche Molecular Systems / Perkin Elmer
Protocol: as §1

T2 sequence (P52028 whole entry, one chain of several): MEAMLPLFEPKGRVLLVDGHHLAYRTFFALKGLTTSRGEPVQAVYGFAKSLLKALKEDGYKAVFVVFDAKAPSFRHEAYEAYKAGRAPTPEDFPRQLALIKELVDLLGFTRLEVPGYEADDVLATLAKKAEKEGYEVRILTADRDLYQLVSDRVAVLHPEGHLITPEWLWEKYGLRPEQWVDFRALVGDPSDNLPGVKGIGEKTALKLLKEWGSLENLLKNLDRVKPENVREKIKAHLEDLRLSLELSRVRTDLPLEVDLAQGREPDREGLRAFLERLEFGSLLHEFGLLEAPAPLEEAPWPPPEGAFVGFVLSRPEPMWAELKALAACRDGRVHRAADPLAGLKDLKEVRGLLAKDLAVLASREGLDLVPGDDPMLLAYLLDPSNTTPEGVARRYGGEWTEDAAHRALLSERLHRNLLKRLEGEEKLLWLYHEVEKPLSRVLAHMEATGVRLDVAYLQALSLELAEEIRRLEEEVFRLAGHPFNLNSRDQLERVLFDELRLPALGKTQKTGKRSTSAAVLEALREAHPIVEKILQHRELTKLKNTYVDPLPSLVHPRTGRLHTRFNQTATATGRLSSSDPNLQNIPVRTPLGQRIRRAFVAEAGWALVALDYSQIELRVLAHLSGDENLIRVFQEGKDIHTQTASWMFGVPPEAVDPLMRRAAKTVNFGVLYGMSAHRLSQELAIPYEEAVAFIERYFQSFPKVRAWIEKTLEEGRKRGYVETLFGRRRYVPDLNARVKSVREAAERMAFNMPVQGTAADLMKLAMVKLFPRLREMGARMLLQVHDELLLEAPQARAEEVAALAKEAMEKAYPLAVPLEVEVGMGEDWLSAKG
T1 sequence (P19821 whole entry, one chain of several): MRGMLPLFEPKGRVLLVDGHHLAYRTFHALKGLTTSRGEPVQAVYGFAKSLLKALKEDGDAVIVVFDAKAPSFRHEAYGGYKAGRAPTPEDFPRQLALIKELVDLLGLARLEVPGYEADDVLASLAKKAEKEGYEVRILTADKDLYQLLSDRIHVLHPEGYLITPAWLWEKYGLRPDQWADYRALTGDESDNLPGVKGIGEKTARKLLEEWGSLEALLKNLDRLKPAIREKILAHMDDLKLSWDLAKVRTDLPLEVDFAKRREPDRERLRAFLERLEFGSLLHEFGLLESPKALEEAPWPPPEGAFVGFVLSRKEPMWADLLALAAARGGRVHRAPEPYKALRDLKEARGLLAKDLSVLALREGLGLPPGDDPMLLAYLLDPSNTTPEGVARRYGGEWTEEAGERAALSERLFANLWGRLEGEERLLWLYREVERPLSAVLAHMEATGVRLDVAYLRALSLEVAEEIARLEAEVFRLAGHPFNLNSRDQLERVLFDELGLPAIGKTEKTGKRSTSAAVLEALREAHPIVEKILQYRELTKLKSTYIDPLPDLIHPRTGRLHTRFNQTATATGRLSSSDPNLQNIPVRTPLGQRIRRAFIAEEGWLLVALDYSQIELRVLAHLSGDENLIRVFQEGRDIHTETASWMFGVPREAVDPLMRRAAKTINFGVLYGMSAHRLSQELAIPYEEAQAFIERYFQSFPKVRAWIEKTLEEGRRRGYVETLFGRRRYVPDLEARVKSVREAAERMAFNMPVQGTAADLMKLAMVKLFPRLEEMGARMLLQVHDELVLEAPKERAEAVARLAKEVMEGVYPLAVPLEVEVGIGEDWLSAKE

B1: D.30-D.30 homodimer (ssDNA)
DNA 1: GCCGGCCAATGTACAGTATTGGCCGGC
DNA 2: GCCGGCCAATGTACAGTATTGGCCGGC
modifications: two Trnc.2-30 copies joined with symmetrical 3'-3' branching CPG linker (linker region drawn in figure only)
In the case of B1, the IC50 (Taq DNA polymerase [1]) is reported as 14 nM and the Kd (Taq DNA polymerase [2]) is reported as 0.0475 nM.

B2: TQ30 (ssDNA)
DNA: TTCTCGGTTGGTCTCTGGCGGAGCAAGACCAGACAATGTACAGTATTGGCCTGATCTTGTGTATGATTCGCTTTTCCC
For B2, the IC50 (Taq DNA polymerase [3]) was 6.5 nM and the IC50 (Tth DNA polymerase [4]) was 60 nM.

B3: TQ21 (ssDNA)
DNA: TTCTCGGTTGGTCTCTGGCGGAGCGATCATCTCAGAGCATTCTTAGCGTTTTGTTCTTGTGTATGATTCGCTTTTCCC
B3 was tested, and the IC50 (Taq DNA polymerase [5]) was 10 nM and the IC50 (Tth DNA polymerase [4]) was 36 nM.

B4: Trnc.21 (ssDNA)
DNA: TGGCGGAGCGATCATCTCAGAGCATTCTTAGCGTTTTGTTCTTGTGTATGA
In the case of B4, the IC50 (Taq DNA polymerase [6]) is reported as 21 nM and the IC50 (Tth DNA polymerase [7]) is reported as 36.5 nM.

GCCGGCCAATGTACAGTATTGGCCGGC (ssDNA) [Trnc.2-30] was tested, and the IC50 (Taq DNA polymerase [8]) was 48 nM.

B5: D.21-D.30 heterodimer (ssDNA)
DNA: TGGCGGAGCGATCATCTCAGAGCATTCTTAGCGTTTTGTTCTTGTGTATGATTTGCCGGCCAATGTACAGTATTGGCCGGC
For B5, the IC50 (Tth DNA polymerase [9]) was about 30 nM and the IC50 (Taq DNA polymerase [10]) was about 30 nM.

— US6020130, “Nucleic acid ligands that bind to and inhibit DNA polymerases” (NeXstar Pharmaceuticals, Inc.)
